Source: US20240262905A1 (PANDION OPERATIONS, published 2024)

T1: human DSG-3 (human, UniProt P32926 50-615, limits assumed)
T1 construct: Soluble analyte (Octet) and plate coat (ELISA); also called hDSG-3
T1 sequence (looked up): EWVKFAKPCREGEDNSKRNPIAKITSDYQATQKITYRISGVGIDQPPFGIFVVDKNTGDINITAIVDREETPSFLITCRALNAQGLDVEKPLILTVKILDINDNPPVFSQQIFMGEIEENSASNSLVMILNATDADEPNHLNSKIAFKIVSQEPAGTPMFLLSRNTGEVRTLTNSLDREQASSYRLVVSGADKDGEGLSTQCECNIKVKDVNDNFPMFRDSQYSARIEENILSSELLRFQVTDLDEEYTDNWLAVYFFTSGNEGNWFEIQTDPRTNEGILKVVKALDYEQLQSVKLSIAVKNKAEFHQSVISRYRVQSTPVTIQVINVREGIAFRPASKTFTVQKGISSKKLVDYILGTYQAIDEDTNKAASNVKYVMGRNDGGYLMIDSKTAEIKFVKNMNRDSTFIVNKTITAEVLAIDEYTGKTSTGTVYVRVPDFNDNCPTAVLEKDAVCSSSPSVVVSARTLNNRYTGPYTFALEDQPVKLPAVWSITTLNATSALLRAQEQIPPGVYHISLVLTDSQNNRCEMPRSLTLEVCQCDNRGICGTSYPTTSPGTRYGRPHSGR

T2: human CD25 (human, UniProt P01589 22-213, limits assumed)
T2 construct: construct not described
T2 sequence (looked up): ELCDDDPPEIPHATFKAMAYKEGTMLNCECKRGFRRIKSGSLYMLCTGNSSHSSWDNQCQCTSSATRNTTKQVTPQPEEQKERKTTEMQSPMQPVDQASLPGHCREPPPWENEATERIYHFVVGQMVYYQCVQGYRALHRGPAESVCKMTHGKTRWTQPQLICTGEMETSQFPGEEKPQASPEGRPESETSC


Legend:
Insulin = target: T3, Insulin; test: ELISA, plate coated with insulin 5 ug/mL, test article at 100 nM, anti-human Fc-HRP detection
T3 construct: Plate coat in the polyreactivity ELISA

human DSG-3 [1] = target: T1, human DSG-3; test: bridging ELISA, plate coated with hDSG-3, test article at 10 nM, then his-tagged hCD25 1 ug/mL, anti-His-HRP detection
human DSG-3 [2] = target: T1, human DSG-3; test: bridging ELISA, plate coated with hDSG-3, test article at 1 nM, then his-tagged hCD25 1 ug/mL, anti-His-HRP detection
human DSG-3 [3] = target: T1, human DSG-3; test: bridging ELISA, plate coated with hDSG-3, test article at 100 nM, then his-tagged hCD25 1 ug/mL, anti-His-HRP detection
human PD-1 = target: T4, human PD-1 (human, UniProt Q15116 25-167); test: BLI (Octet), test article captured on anti-human Fc biosensors, human PD-1 as analyte, 1:1 global fit
T4 construct: Soluble analyte in the Octet assay

human CD25 = target: T2, human CD25; test: BLI (Octet), test article captured on anti-human Fc biosensors, 1:1 global fit (method text names desmogleins as analyte; result told for human CD25)
[4] = target: PD-1 on PD-1 reporter Jurkat cells (human, UniProt Q15116 25-288); test: cell-based or functional assay
Sequence of PD-1 on PD-1 reporter Jurkat cells (Q15116 25-288): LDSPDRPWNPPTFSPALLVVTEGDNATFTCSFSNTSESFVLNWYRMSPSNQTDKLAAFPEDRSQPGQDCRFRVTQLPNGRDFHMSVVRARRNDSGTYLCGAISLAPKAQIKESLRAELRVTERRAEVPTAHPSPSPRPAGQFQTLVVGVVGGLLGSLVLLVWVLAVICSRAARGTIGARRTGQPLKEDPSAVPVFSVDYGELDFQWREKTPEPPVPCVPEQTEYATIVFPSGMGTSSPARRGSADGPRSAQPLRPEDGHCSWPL

T4 sequence (Q15116 25-167 limits assumed): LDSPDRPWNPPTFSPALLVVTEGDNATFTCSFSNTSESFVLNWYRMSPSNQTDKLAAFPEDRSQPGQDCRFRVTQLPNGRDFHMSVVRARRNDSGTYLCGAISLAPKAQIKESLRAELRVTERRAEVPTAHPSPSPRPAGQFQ

Row | Insulin polyreactivity score (Insulin) | absorbance (OD450 nm) (human DSG-3 [1]) | absorbance (OD450 nm) (human DSG-3 [2]) | absorbance (OD450 nm) (human DSG-3 [3]) | Kd (human PD-1) [nM] | Kd (human CD25) [nM] | SHP-2 recruitment in PD-1 reporter Jurkat cells (test article on anti-human IgG coated plate), EC50 at 2 hours [4] [nM] | SHP-2 recruitment in PD-1 reporter Jurkat cells (test article on anti-human IgG coated plate), EC50 at 24 hours [4] [nM] | Binder
1 | 1.7 | – | – | – | 328 | – | – | – | PD1DSGAB3 (bispecific antibody, human IgG1, kappa, Anti-PD-1 agonist human IgG1 with an SD3 anti-desmoglein scFv at the C-terminus of each heavy chain; copies: 2 + 2) heavy: QVQLVQSGAEVKKPGASVKVSCKASGYSFTTYYMHWVRQAPGQGLEWMGIINPSGGSTSYAQKFQGRVTMTRDTSTSTVYMELSSLRSEDTAVYYCASGWVYWGQGTLVTVSSASTKGPSVFPLAPSSKSTSGGTAALGCLVKDYFPEPVTVSWNSGALTSGVHTFPAVLQSSGLYSLSSVVTVPSSSLGTQTYICNVNHKPSNTKVDKKVEPKSCDKTHTCPPCPAPEAAGAPSVFLFPPKPKDTLMISRTPEVTCVVVDVSHEDPEVKFNWYVDGVEVHNAKTKPREEQYNSTYRVVSVLTVLHQDWLNGKEYKCKVSNKALPAPIEKTISKAKGQPREPQVYTLPPSREEMTKNQVSLTCLVKGFYPSDIAVEWESNGQPENNYKTTPPVLDSDGSFFLYSKLTVDKSRWQQGNVFSCSVMHEALHNHYTQKSLSLSPGGGGGSGGGGSGGGGSELQMTQSPSSLSASVGDRVTITCQASQDIGNYLNWYQQKPGKAPKLLIYDASYLETGVPSRFSGSGSGTDFTFTISSLQPEDIATYYCQQYDNLPFTFGPGTKVDIKGGGGSGGGGSGGGGSGGGGSEVQLVESGGGLVQPGRSLRLSCAASGFTFDDYAMHWVRQAPGKGLEWVSGISWNSGSIDYADSVKGRFTISRDNAKNSLYLQMNSLRVEDTALYYCAKDGSRVFGVGGGFDFWGQGTMVTVSS light: not shown
2 | – | – | – | – | 243 | – | – | – | PD1DSGAB4 (bispecific antibody, human IgG1, kappa, Anti-PD-1 agonist human IgG1 with an SD4 anti-desmoglein scFv at the C-terminus of each heavy chain; copies: 2 + 2) heavy: QVQLVQSGAEVKKPGASVKVSCKASGYSFTTYYMHWVRQAPGQGLEWMGIINPSGGSTSYAQKFQGRVTMTRDTSTSTVYMELSSLRSEDTAVYYCASGWVYWGQGTLVTVSSASTKGPSVFPLAPSSKSTSGGTAALGCLVKDYFPEPVTVSWNSGALTSGVHTFPAVLQSSGLYSLSSVVTVPSSSLGTQTYICNVNHKPSNTKVDKKVEPKSCDKTHTCPPCPAPEAAGAPSVFLFPPKPKDTLMISRTPEVTCVVVDVSHEDPEVKFNWYVDGVEVHNAKTKPREEQYNSTYRVVSVLTVLHQDWLNGKEYKCKVSNKALPAPIEKTISKAKGQPREPQVYTLPPSREEMTKNQVSLTCLVKGFYPSDIAVEWESNGQPENNYKTTPPVLDSDGSFFLYSKLTVDKSRWQQGNVFSCSVMHEALHNHYTQKSLSLSPGGGGGSGGGGSGGGGSELVLTQPPSVPVAPGQTANISCGGNNIGRQTVHWYQQKPGQAPVLVVFDDSDRPAGIPERFSGSNSGNTATLTISRVEAGDEADYYCQVWDSSSDHVVFGGGTQLTVLGGGGSGGGGSGGGGSGGGGSQVQLVQSGGGVVQSGRSLRLSCAASGFTFSDYAMHWVRQAPGKGLEWVAVISHGGTKKYTGDSVKGRFIISRDNSKNTVFLQMNSLRVEDTAVYYCARDRVEGYVWGGTFDHWGQGTPVTVSS light: not shown

Continued, binder first:

Row | Binder | Insulin polyreactivity score (Insulin) | absorbance (OD450 nm) (human DSG-3 [1]) | absorbance (OD450 nm) (human DSG-3 [2]) | absorbance (OD450 nm) (human DSG-3 [3]) | Kd (human PD-1) [nM] | Kd (human CD25) [nM] | SHP-2 recruitment in PD-1 reporter Jurkat cells (test article on anti-human IgG coated plate), EC50 at 2 hours [4] [nM] | SHP-2 recruitment in PD-1 reporter Jurkat cells (test article on anti-human IgG coated plate), EC50 at 24 hours [4] [nM]
3 | IL2DSGAB4 (other, SD4 anti-desmoglein human IgG1 with the IL-2 mutein fused to the C-terminus of the heavy chain; copies: 2 + 2) heavy: QVQLVQSGGGVVQSGRSLRLSCAASGFTFSDYAMHWVRQAPGKGLEWVAVISHGGTKKYTGDSVKGRFIISRDNSKNTVFLQMNSLRVEDTAVYYCARDRVEGYVWGGTFDHWGQGTPVTVSSASTKGPSVFPLAPSSKSTSGGTAALGCLVKDYFPEPVTVSWNSGALTSGVHTFPAVLQSSGLYSLSSVVTVPSSSLGTQTYICNVNHKPSNTKVDKKVEPKSCDKTHTCPPCPAPEAAGAPSVFLFPPKPKDTLMISRTPEVTCVVVDVSHEDPEVKFNWYVDGVEVHNAKTKPREEQYNSTYRVVSVLTVLHQDWLNGKEYKCKVSNKALPAPIEKTISKAKGQPREPQVYTLPPSREEMTKNQVSLTCLVKGFYPSDIAVEWESNGQPENNYKTTPPVLDSDGSFFLYSKLTVDKSRWQQGNVFSCSVMHEALHNHYTQKSLSLSPGGGGGSAPTSSSTKKTQLQLEHLLLDLQMILNGINNYKNPKLTRMLTFKFYMPKKATELKHLQCLEEELKPLEEALNLAPSKNFHLRPRDLISDINVIVLELKGSETTFMCEYADETATIVEFINRWITFSQSIISTLT light: ELVLTQPPSVPVAPGQTANISCGGNNIGRQTVHWYQQKPGQAPVLVVFDDSDRPAGIPERFSGSNSGNTATLTISRVEAGDEADYYCQVWDSSSDHVVFGGGTQLTVLGQPKAAPSVTLFPPSSEELQANKATLVCLISDFYPGAVTVAWKADSSPVKAGVETTTPSKQSNNKYAASSYLSLTPEQWKSHRSYSCQVTHEGSTVEKTVAPTECS | 3.1 | 0.545 | 0.194 | 1.16 | – | – | – | –
4 | IL2DSGAB7 (other, also called TL2DSGAB7) heavy: EVQLVESGGGLVQPGRSLRLSCAASGFTFDDYAMHWVRQAPGKGLEWVSGISWNSGSIDYADSVKGRFTISRDNAKNSLYLQMNSLRVEDTALYYCAKDGSRVFGVGGGFDFWGQGTMVTVSSASTKGPSVFPLAPSSKSTSGGTAALGCLVKDYFPEPVTVSWNSGALTSGVHTFPAVLQSSGLYSLSSVVTVPSSSLGTQTYICNVNHKPSNTKVDKKVEPKSCDKTHTCPPCPAPEAAGAPSVFLFPPKPKDTLMISRTPEVTCVVVDVSHEDPEVKFNWYVDGVEVHNAKTKPREEQYNSTYRVVSVLTVLHQDWLNGKEYKCKVSNKALPAPIEKTISKAKGQPREPQVYTLPPSREEMTKNQVSLTCLVKGFYPSDIAVEWESNGQPENNYKTTPPVLDSDGSFFLYSKLTVDKSRWQQGNVFSCSVMHEALHNHYTQKSLSLSPG light: not shown | – | 0.55 | 0.36 | 1.2 | – | 3.5 | – | –
5 | PD1DSGAB1 (bispecific antibody, Anti-PD-1 agonist human IgG1 with an SD1 anti-desmoglein scFv at the C-terminus of each heavy chain (PD-1 ML-N format)) heavy: QVQLVQSGAEVKKPGASVKVSCKASGYSFTTYYMHWVRQAPGQGLEWMGIINPSGGSTSYAQKFQGRVTMTRDTSTSTVYMELSSLRSEDTAVYYCASGWVYWGQGTLVTVSSASTKGPSVFPLAPSSKSTSGGTAALGCLVKDYFPEPVTVSWNSGALTSGVHTFPAVLQSSGLYSLSSVVTVPSSSLGTQTYICNVNHKPSNTKVDKKVEPKSCDKTHTCPPCPAPEAAGAPSVFLFPPKPKDTLMISRTPEVTCVVVDVSHEDPEVKFNWYVDGVEVHNAKTKPREEQYNSTYRVVSVLTVLHQDWLNGKEYKCKVSNKALPAPIEKTISKAKGQPREPQVYTLPPSREEMTKNQVSLTCLVKGFYPSDIAVEWESNGQPENNYKTTPPVLDSDGSFFLYSKLTVDKSRWQQGNVFSCSVMHEALHNHYTQKSLSLSPGGGGGSGGGGSGGGGSQSVLTQPPSVSGTPGQRVTISCSGSSSHIGSNYVYWYQQLPGTAPKILIYSNDQRPAGVPDRFSASKSGTSASLAISGLRSEDEADYYCAAWDDGQGGVFGGGTKLTVLGGGGSGGGGSGGGGSGGGGSQVQLQESGPGPVKPSGTLSLTCGVSGGSISSNHWWTWVRQPPGKGLEWIGEIYHNGSTFLNPSLKSRVTISVDKSNNQFSLKLTSVTAADTAVYYCARGWHRTGFRGYPSHWYFDLWGRGTLVSVSS light: not shown | 1.3 | – | – | – | 123 | – | 107 | 11.2
6 | IL2DSGAB3 (other, SD3 anti-desmoglein human IgG1 with the IL-2 mutein fused to the C-terminus of the heavy chain; copies: 2 + 2) heavy: EVQLVESGGGLVQPGRSLRLSCAASGFTFDDYAMHWVRQAPGKGLEWVSGISWNSGSIDYADSVKGRFTISRDNAKNSLYLQMNSLRVEDTALYYCAKDGSRVFGVGGGFDFWGQGTMVTVSSASTKGPSVFPLAPSSKSTSGGTAALGCLVKDYFPEPVTVSWNSGALTSGVHTFPAVLQSSGLYSLSSVVTVPSSSLGTQTYICNVNHKPSNTKVDKKVEPKSCDKTHTCPPCPAPEAAGAPSVFLFPPKPKDTLMISRTPEVTCVVVDVSHEDPEVKFNWYVDGVEVHNAKTKPREEQYNSTYRVVSVLTVLHQDWLNGKEYKCKVSNKALPAPIEKTISKAKGQPREPQVYTLPPSREEMTKNQVSLTCLVKGFYPSDIAVEWESNGQPENNYKTTPPVLDSDGSFFLYSKLTVDKSRWQQGNVFSCSVMHEALHNHYTQKSLSLSPGGGGGSAPTSSSTKKTQLQLEHLLLDLQMILNGINNYKNPKLTRMLTFKFYMPKKATELKHLQCLEEELKPLEEALNLAPSKNFHLRPRDLISDINVIVLELKGSETTFMCEYADETATIVEFINRWITFSQSIISTLT light: not shown | 2.9 | 0.628 | 0.508 | 0.756 | – | – | – | –
